In publication PMC9204493:

What was measured:
Assay in all cases: SEC-MALS; Superose 6 Increase 10/300, 1x PBS pH 7.4, 0.4 mL/min, non-denaturing; self-assembly of the fusion protein into the nanoparticle
[1] = target: Encapsulin-pH1HA10 (Myxococcus xanthus) (UniProt Q1D6H4)
[2] = target: MsDps2-pH1HA10 (Mycobacterium smegmatis)
[3] = target: pH1HA10-Ferritin (Helicobacter pylori) (UniProt Q9ZLI1)

Encapsulin-pH1HA10 (from UniProt Q1D6H4 1-287)
stoichiometry N [1]: 180

MsDps2-pH1HA10
stoichiometry N [2]: 12

pH1HA10-Ferritin (from UniProt Q9ZLI1 1-163)
stoichiometry N [3]: 24
